Source: PMC7960543 (The Journal of Biological Chemistry, 2021)
Bridge positions count the residues as written; N and C are the ends. Ends that are not written are not given here.

B5: recombinant soluble CD40L (residues 118–261) with no N-terminal KGD motif, wild type (ligand)
chain: QNPQIAAHVISEASSKTTSVLQWAEKGYYTMSNNLVTLENGKQLTVKRQGLYYIYAQVTFCSNREASSQAPFIASLCLKSPGRFERILLRAANTHSSAKPCGQQSIHLGGVFELQPGASVFVNVTDPSQVSHGTGFTSFGLLKL
notes: CD40L (CD40 ligand), residues 118–261, without the KGD motif (residues 115–117); the His tag is known from detection with anti-His antibody; also called sCD40L; WT sCD40L; source: recombinant, synthesized as described (13)
B6: CD40 fragment (residues 21–144) fused to GST (domain or fragment, UniProt P25942 21-144, looked up)
chain: EPPTACREKQYLINSQCCSLCQPGQKLVSDCTEFTETECLPCGESEFLDTWNRETHCHQHKYCDPNLGLRVQQKGTSETDTICTCEEGWHCTSEACESCVLHRSCSPGFGVKQIATGVSDTICE
notes: also called CD40 fused to GST

What was measured:
[1] = target: T1, recombinant soluble integrin αvβ3, P06756;P05106; assay: ELISA; conditions: chain shown with the change; immobilized CD40L mutants 10 μg/ml; soluble αvβ3 5 μg/ml in HEPES-Tyrodes buffer, 1 mM Mn2+; detection with anti-β3 (AV10); parent: est. 0.48; read off a plot
T1 chain 1: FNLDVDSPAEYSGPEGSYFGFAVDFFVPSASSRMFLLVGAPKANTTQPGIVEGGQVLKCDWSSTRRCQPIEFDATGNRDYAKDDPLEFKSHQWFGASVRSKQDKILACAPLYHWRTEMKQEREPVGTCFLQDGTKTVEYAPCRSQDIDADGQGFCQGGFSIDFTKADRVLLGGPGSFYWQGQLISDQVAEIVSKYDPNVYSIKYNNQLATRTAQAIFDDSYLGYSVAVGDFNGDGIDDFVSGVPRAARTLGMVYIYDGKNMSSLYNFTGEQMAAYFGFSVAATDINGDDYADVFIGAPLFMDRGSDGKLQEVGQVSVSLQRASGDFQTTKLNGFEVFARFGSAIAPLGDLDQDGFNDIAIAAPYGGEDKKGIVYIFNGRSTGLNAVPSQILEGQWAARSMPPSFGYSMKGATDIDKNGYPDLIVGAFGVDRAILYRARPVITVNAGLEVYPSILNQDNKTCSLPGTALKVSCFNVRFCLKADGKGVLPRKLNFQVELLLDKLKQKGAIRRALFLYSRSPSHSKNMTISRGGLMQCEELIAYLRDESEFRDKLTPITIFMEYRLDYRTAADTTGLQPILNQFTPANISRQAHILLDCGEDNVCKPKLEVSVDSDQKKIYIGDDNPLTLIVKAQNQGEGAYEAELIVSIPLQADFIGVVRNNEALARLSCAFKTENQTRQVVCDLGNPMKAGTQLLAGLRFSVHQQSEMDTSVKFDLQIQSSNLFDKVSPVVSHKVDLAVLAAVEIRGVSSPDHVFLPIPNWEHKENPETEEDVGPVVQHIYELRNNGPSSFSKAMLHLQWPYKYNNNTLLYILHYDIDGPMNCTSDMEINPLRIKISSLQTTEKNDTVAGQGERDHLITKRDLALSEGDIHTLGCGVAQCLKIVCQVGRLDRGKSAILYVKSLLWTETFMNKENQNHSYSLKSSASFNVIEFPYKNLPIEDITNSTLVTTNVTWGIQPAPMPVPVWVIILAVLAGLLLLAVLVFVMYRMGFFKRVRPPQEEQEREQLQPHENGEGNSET
T1 chain 2: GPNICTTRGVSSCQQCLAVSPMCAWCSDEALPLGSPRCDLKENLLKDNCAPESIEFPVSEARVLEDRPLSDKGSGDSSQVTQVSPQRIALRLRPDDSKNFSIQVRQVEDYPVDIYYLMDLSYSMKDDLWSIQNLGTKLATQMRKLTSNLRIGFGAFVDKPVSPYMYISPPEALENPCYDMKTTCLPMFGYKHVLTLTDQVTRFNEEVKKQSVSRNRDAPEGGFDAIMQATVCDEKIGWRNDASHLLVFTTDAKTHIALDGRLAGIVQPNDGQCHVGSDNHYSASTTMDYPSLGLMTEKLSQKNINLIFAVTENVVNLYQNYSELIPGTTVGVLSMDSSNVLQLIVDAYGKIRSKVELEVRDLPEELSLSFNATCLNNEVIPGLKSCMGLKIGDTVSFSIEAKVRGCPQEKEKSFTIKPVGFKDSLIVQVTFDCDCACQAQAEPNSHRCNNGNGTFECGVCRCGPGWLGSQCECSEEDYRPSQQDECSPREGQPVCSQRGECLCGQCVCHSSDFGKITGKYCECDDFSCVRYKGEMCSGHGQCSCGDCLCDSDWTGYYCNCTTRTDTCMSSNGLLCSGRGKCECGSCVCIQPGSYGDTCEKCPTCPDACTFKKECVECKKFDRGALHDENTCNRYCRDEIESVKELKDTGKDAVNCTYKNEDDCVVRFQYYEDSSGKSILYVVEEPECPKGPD

[2] = target: B6; assay: ELISA; CD40 fragment (21–144) fused to GST coated on wells (100 μg/ml in PBS); sCD40L (WT or mutant) incubated 1 h; bound sCD40L measured with HRP-conjugated anti-His; conditions: both partners purified
[3] = target: T2, sCD40L (residues 118–261) S128R/E129G HIGM1 mutant (UniProt P29965 118-261, S128R | E129G); assay: as above; conditions: both partners purified
T2 construct: CD40L residues 118–261; HIGM1 (hyper-IgM syndrome type 1) mutation; source: recombinant, site-directed mutagenesis of WT sCD40L, synthesized as for WT
T2 sequence (looked up): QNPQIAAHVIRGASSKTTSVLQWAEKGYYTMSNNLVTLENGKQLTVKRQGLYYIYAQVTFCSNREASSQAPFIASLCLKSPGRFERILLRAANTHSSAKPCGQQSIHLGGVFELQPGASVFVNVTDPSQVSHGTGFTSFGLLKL

[4] = target: T3, sCD40L (residues 118–261) K143T HIGM1 mutant (UniProt P29965 118-261, K143T); assay: as above; conditions: both partners purified
T3 construct: CD40L residues 118–261; HIGM1 mutation; source: recombinant, site-directed mutagenesis of WT sCD40L, synthesized as for WT
T3 sequence (looked up): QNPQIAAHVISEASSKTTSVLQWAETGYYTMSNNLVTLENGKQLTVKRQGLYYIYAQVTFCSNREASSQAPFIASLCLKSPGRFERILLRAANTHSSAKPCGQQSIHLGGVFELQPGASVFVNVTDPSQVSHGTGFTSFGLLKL

[5] = target: T4, sCD40L (residues 118–261) G144E HIGM1 mutant (UniProt P29965 118-261, G144E); assay: as above; conditions: both partners purified
T4 construct: CD40L residues 118–261; HIGM1 mutation; source: recombinant, site-directed mutagenesis of WT sCD40L, synthesized as for WT
T4 sequence (looked up): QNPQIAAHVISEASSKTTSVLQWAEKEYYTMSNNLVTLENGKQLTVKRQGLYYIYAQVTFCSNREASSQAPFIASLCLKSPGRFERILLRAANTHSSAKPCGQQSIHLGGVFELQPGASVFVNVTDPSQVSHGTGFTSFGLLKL

[6] = target: T5, sCD40L (residues 118–261) L155P HIGM1 mutant (UniProt P29965 118-261, L155P); assay: as above; conditions: both partners purified
T5 construct: CD40L residues 118–261; HIGM1 mutation; source: recombinant, site-directed mutagenesis of WT sCD40L, synthesized as for WT
T5 sequence (looked up): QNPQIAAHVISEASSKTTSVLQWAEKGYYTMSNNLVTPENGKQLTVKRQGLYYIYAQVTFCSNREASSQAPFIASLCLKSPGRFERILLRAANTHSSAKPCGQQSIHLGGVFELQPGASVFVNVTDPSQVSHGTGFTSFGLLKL

[7] = target: B5; assay: ELISA; CD40L immobilized; cyclic site 2 peptides of β1 or β3 fused to GST in solution; bound GST measured with HRP-conjugated anti-GST; conditions: both partners purified

B1: recombinant soluble CD40L (residues 118–261) with no N-terminal KGD motif, wild type S128R; E129G (protein)
chain: QNPQIAAHVIRGASSKTTSVLQWAEKGYYTMSNNLVTLENGKQLTVKRQGLYYIYAQVTFCSNREASSQAPFIASLCLKSPGRFERILLRAANTHSSAKPCGQQSIHLGGVFELQPGASVFVNVTDPSQVSHGTGFTSFGLLKL
In the case of B1, the response [1] is reported as 0.046 OD450.

B2: recombinant soluble CD40L (residues 118–261) with no N-terminal KGD motif, wild type K143T (protein)
chain: QNPQIAAHVISEASSKTTSVLQWAETGYYTMSNNLVTLENGKQLTVKRQGLYYIYAQVTFCSNREASSQAPFIASLCLKSPGRFERILLRAANTHSSAKPCGQQSIHLGGVFELQPGASVFVNVTDPSQVSHGTGFTSFGLLKL
B2 gave a response [1] of 0.33 OD450.

B3: recombinant soluble CD40L (residues 118–261) with no N-terminal KGD motif, wild type G144E (protein)
chain: QNPQIAAHVISEASSKTTSVLQWAEKEYYTMSNNLVTLENGKQLTVKRQGLYYIYAQVTFCSNREASSQAPFIASLCLKSPGRFERILLRAANTHSSAKPCGQQSIHLGGVFELQPGASVFVNVTDPSQVSHGTGFTSFGLLKL
Work on B3 yielded a response [1] of 0.4 OD450.

B4: recombinant soluble CD40L (residues 118–261) with no N-terminal KGD motif, wild type L155P (protein)
chain: QNPQIAAHVISEASSKTTSVLQWAEKGYYTMSNNLVTPENGKQLTVKRQGLYYIYAQVTFCSNREASSQAPFIASLCLKSPGRFERILLRAANTHSSAKPCGQQSIHLGGVFELQPGASVFVNVTDPSQVSHGTGFTSFGLLKL
For B4, the response [1] was 0.042 OD450.

B5: binds [2].

B6: binds [3]; binds [4]; binds [5]. B6: binds [6].

B7: disulfide-linked cyclic site 2 peptide of integrin β3 (C260–C288) fused to GST (peptide)
peptide: CRLAGIVQPNDGQSHVGSDNHYSASTTMC
modifications: disulfide 1-29; also: fused to GST
notes: also called cyclic site 2 peptide from β3; 29-mer cyclic β3 peptide
B7: binds [7].

B8: disulfide-linked cyclic site 2 peptide of integrin β1 (C268–C295) fused to GST (peptide)
peptide: CKLGGIVLPNDGQSHLENNMYTMSHYYC
modifications: disulfide 1-28; also: fused to GST
notes: integrin β1 residues 268–295 (site 2); Cloned in pGEX-2T6His; also called the corresponding β1 peptide; 28-mer cyclic β1 peptide
B8: binds [7].
